The values that follow come from paper PMC9638941, “Molecular basis of dual anti-CRISPR and auto-regulatory functions of AcrIF24” (Nucleic Acids Research, 2022).

The target of one series is T1, AcrIF24 Y128K/Y217W (Pseudomonas aeruginosa prophage, UniProt A0AA82WNY5 1-228, Y128K;Y217W).
T1 sequence: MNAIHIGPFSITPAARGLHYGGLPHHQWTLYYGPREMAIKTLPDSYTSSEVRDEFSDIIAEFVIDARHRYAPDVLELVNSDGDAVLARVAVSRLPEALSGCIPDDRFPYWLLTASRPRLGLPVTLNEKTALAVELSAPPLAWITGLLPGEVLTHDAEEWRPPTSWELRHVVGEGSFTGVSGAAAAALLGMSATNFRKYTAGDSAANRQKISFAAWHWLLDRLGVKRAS
Briefly: EMSA; EMSA-P: 10 mM HEPES pH 7.5, 1 mM MgCl2, 20 mM KCl, 1 mM TCEP, 5% glycerol, 30 min on ice; 10% native 0.5x TBE gel, SYBR Gold; Cascade EMSA buffer not in material. Conditions: protein: recombinant; label: none (SYBR Gold stain); blunt. In general terms: A gel shift assay detects complexes by their altered migration in electrophoresis.

Series [1] has as its target T2, AcrIF24 S45Y (Pseudomonas aeruginosa prophage, UniProt A0AA82WNY5 1-228, S45Y).
T2 sequence: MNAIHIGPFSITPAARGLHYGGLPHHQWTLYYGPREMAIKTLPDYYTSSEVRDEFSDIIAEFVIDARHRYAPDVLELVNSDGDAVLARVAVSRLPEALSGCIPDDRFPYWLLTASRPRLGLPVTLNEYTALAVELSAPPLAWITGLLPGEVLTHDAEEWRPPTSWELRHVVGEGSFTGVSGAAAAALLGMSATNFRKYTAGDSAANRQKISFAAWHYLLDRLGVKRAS
In words: EMSA; native PAGE; EMSA-P: 10 mM HEPES pH 7.5, 1 mM MgCl2, 20 mM KCl, 1 mM TCEP, 5% glycerol, 30 min on ice; 10% native 0.5x TBE gel, SYBR Gold; Cascade EMSA buffer not in material. Conditions: protein: recombinant; chain copies: 2; label: none (SYBR Gold stain); blunt.

Series [2] has as its target T3, AcrIF24 K197Y (Pseudomonas aeruginosa prophage, UniProt A0AA82WNY5 1-228, K197Y).
T3 sequence: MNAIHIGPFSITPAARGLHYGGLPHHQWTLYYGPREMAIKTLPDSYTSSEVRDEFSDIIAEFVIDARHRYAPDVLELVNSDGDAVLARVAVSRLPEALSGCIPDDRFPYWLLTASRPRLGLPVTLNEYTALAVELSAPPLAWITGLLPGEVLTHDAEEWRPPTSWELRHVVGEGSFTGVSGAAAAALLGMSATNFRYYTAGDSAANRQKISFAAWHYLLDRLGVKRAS
The series is described as above. Conditions: protein: recombinant; chain copies: 2; label: none (SYBR Gold stain); blunt.

In series [3] the target is T4, AcrIF24 R207W (Pseudomonas aeruginosa prophage, UniProt A0AA82WNY5 1-228, R207W).
T4 sequence: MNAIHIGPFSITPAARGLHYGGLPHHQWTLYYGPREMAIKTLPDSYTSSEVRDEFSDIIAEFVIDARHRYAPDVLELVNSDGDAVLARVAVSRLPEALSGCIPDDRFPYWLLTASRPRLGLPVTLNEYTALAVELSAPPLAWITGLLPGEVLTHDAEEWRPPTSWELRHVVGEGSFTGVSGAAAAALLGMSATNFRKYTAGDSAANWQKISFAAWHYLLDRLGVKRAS
The series is described as above. Conditions: protein: recombinant; chain copies: 2; label: none (SYBR Gold stain); blunt.

The target in series [4] is T2, AcrIF24 S45Y. In words: EMSA; 1 uM protein; EMSA-P: 10 mM HEPES pH 7.5, 1 mM MgCl2, 20 mM KCl, 1 mM TCEP, 5% glycerol, 30 min on ice; 10% native 0.5x TBE gel, SYBR Gold; Cascade EMSA buffer not in material. Conditions: protein: recombinant; chain copies: 2; label: none (SYBR Gold stain); blunt.
Series [5] addresses T3, AcrIF24 K197Y. The series is described as above. Conditions: protein: recombinant; chain copies: 2; label: none (SYBR Gold stain); blunt.
The target of the next series is T5, AcrIF24 R16W (Pseudomonas aeruginosa prophage, UniProt A0AA82WNY5 1-228, R16W).
T5 sequence: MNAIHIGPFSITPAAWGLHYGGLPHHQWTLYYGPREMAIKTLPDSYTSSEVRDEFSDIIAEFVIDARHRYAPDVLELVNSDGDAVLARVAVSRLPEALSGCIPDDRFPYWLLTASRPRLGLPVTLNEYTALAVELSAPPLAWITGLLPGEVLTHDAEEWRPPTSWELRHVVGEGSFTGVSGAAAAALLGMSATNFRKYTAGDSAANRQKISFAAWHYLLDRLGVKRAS
The description is as above. Conditions: protein: recombinant; chain copies: 2; label: none (SYBR Gold stain); blunt.

Series [6] has as its target T4, AcrIF24 R207W. The series is described as above. Conditions: protein: recombinant; chain copies: 2; label: none (SYBR Gold stain); blunt.

B1: IR-L (dsDNA)
DNA 1: CAGAATATCATTGCATAGCTCGATTCGAGCTAATATAGTAATACCAACAGCGCGGCACACCGCCAGCACTGAACCT
DNA 2: AGGTTCAGTGCTGGCGGTGTGCCGCGCTGTTGGTATTACTATATTAGCTCGAATCGAGCTATGCAATGATATTCTG
For B1, the binding result in the series with AcrIF24 Y128K/Y217W is “no binding”; with AcrIF24 S45Y [1], “binds”; with AcrIF24 K197Y [2], “no binding”; with AcrIF24 R207W [3], “no binding”.

B2: IR-S (dsDNA)
DNA 1: TAGCTCGATTCGAGCTA
DNA 2: TAGCTCGAATCGAGCTA
Turning to B2, the binding result is given as “binds” with AcrIF24 S45Y [4], “no binding” with AcrIF24 K197Y [5], “binds” with AcrIF24 R16W and “no binding” with AcrIF24 R207W [6].
